Patent publication EP4814014A1, “BINDING MOLECULE AND ANTIBODY-DRUG CONJUGATE AND USE THEREOF” (priority 2023, dated 2025)

What was measured:
human cMet on cells [1] = biological target: T1, human cMet on cells (human, UniProt P08581 25-1390); experiment: FACS competition on EBC-1 cells, HGF-His as the ligand detected, VHH-Fc from 100 nM
T1 construct: whole, on cells; Cell lines: CHO-S-cMet, CHOK1-hucMet, EBC-1, MKN45, NCI-H1975; the cell line is named under assay; also called CHO-S-cMet; CHOK1-hucMet
T1 sequence (P08581 25-1390): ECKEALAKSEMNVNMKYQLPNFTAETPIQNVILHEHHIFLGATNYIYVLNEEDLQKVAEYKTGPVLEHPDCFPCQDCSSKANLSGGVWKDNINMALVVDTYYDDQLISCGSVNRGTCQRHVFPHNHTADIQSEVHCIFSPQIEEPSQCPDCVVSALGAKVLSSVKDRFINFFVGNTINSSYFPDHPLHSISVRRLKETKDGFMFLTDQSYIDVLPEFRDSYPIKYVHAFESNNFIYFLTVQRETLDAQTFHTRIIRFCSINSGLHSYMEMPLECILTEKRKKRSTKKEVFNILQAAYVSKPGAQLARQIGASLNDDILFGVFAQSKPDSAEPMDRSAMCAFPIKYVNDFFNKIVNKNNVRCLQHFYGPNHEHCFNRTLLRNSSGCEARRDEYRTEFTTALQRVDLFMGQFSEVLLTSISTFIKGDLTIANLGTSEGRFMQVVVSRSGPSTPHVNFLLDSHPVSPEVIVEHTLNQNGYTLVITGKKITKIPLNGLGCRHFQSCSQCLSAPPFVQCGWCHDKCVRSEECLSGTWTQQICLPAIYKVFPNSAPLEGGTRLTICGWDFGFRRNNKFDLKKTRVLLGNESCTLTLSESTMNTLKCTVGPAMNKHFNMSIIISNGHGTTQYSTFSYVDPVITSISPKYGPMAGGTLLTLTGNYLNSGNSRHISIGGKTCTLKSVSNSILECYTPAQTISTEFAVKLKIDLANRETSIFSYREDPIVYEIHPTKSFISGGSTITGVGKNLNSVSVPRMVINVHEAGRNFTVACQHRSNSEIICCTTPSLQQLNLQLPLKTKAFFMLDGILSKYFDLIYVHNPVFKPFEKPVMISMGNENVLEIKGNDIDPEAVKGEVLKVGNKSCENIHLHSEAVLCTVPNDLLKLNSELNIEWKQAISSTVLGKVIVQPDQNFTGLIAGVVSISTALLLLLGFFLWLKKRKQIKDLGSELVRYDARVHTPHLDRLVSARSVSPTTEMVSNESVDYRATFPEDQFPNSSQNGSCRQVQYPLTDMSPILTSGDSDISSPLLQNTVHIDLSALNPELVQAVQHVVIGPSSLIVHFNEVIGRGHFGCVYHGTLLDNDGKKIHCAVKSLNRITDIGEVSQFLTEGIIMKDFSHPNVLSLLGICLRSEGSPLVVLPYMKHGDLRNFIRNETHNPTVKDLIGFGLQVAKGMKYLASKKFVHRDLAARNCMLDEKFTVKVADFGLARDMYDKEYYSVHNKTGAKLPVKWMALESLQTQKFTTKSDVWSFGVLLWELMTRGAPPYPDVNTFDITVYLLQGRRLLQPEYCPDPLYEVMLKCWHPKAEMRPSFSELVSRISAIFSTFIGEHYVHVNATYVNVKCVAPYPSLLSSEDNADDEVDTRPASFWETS

human EGFR on cells [2] = biological target: T2, human EGFR on cells (human, UniProt P00533 25-1210); experiment: FACS, VHH-His on MDA-MB-468 cells
T2 construct: whole, on cells; the cell line is named under assay; also called CHO-S-EGFR; CHOK1-huEGFR

human EGFR on cells [3] = biological target: T2, human EGFR on cells; experiment: FACS, VHH-His on CHOK1-huEGFR cells
[4] = biological target: Human EGFR antigen (SPR of Example 4.4) (human, UniProt P00533 25-645); experiment: SPR method I, antigen on CM5 chip, VHH-His injected, 1:1 model
[5] = biological target: Cyno EGFR antigen (SPR of Example 4.4) (cynomolgus monkey, UniProt A0A2K5WK39 25-645); experiment: as above
human cMet on cells [6] = biological target: T1, human cMet on cells; experiment: FACS, VHH-His on MKN45 cells
human cMet on cells [7] = biological target: T1, human cMet on cells; experiment: FACS, VHH-His on CHOK1-hucMet cells

B1: V-n9A10 anti-cMet VHH-Fc (Fc fusion, not shown: a dimerising Fc or GST)
chain: QVQLVESGGGLVQPGGSLRLSCEASGFTFSSYVMSWYRQAPGKERELVALISSTTGSSTKYGDSVKGRFTISRDNAKNTVYLQMNSLKPEDTAVYYCNAMIGWNNHWGQGTHVTVSS
MFI value at the highest concentration (human cMet on cells [1]): 77200 MFI
ratio of MFI value at the highest concentration to that at the lowest concentration (human cMet on cells [1]): 1.14

B2: V-n10A1 anti-EGFR VHH-His (VHH, not shown: small tags and cut ends)
VHH: QVQLVESGGGLVQAGGSLRLSCAASGRTGSLHAMGWFRQAPGKERERVATLNLSDGSAVTADSVKGRFTISTDNTKNSVYLQMNSLKPEDTAVYYCTASRSPSGIRYYKPDYWGQGTQVTVSS
notes: Monovalent parent VHH
Maximum MFI value (human EGFR on cells [2]): 5830 MFI
Maximum MFI value (human EGFR on cells [2]; record 2): 5160 MFI
Maximum MFI value (human EGFR on cells [3]): 2760 MFI
Kd [4]: 37.4 nM
koff [4]: 0.0258 s⁻¹
kon [4]: 691000 M⁻¹ s⁻¹
Kd [5]: 17.2 nM
koff [5]: 0.01 s⁻¹
kon [5]: 581000 M⁻¹ s⁻¹

B3: pzn10A1_m6m5 (VHH, not shown: small tags and cut ends)
VHH: QVQLVESGGGLVQPGGSLRLSCAASGRTGSLHAMGWFRQAPGKERERVATLNLSDVSAVTADSVKGRFTISTDNSKNSVYLQMNSLRAEDTAVYYCTASRSPSGIRYYKPDYWGQGTLVTVSS
Maximum MFI value (human EGFR on cells [3]): 3570 MFI

B4: ppzn10A1_m6m5.m1 (VHH, not shown: small tags and cut ends)
VHH: QVQLVESGGGLVQPGGSLRLSCAASGRTGSLHAMGWFRQAPGKERERVATLRLSDVSAVTADSVKGRFTISTDNSKNSVYLQMNSLRAEDTAVYYCTASRSPSGIRYYKPDYWGQGTLVTVSS
Maximum MFI value (human EGFR on cells [3]): 2470 MFI

B5: ppzn10A1_m6m5.m3 (VHH, not shown: small tags and cut ends)
VHH: QVQLVESGGGLVQPGGSLRLSCAASGRTGSLHAMGWFRQAPGKERERVATLQLSDVSAVTADSVKGRFTISTDNSKNSVYLQMNSLRAEDTAVYYCTASRSPSGIRYYKPDYWGQGTLVTVSS
Maximum MFI value (human EGFR on cells [3]): 4770 MFI

B6: pn7A12.N32X.m1 (VHH, not shown: small tags and cut ends)
VHH: EVQLVESGGGLVQAGGSLRLSCVASGNIFSSYHMGWFRQAPGKQREFIAYITTREITNYADSVKGRFTISRDNTKNTVYLQMNVLKPEDTAVYYCIADQSREIRRSWGQGTQVTVSS
notes: PTM-removal anti-cMet VHH-His
EC50 (human cMet on cells [6]): 5.1 nM
Maximum MFI value (human cMet on cells [6]): 40400 MFI

B7: dpzn7A12m4.m1_1 (VHH, not shown: small tags and cut ends)
VHH: EVQLVESGGGLIQAGGSLRLSCTASGNIFSSYHMGWFRQAPGKQREFIAYITTREITNYADSVKGRFTISRDNSKNTLYLQMNSLRAEDTAVYYCIADQSREIRRSWGQGTLVTVSS
notes: Humanized + PTM removal + primary immunogenicity removal, anti-cMet VHH-His
EC50 (human cMet on cells [7]): 0.716 nM
Maximum MFI value (human cMet on cells [7]): 73900 MFI

B8: dpzn7A12m4.m1_3 (VHH, not shown: small tags and cut ends)
VHH: EVQLVESGGGLIQAGGSLRLSCTASGNIFSSYHMGWFRQAPGKQREFIAYITTREITNYADSVKGRFTISRDNAKNTVYLQMNSLRPEDTAVYYCIADQSREIRRSWGQGTLVTVSS
notes: as for B7
EC50 (human cMet on cells [7]): 0.809 nM
Maximum MFI value (human cMet on cells [7]): 63400 MFI

B9: pn7A12.N32X.m3 (VHH, not shown: small tags and cut ends)
VHH: EVQLVESGGGLVQAGGSLRLSCVASGNIFSSHHMGWFRQAPGKQREFIAYITTREITNYADSVKGRFTISRDNTKNTVYLQMNVLKPEDTAVYYCIADQSREIRRSWGQGTQVTVSS
notes: PTM-removal anti-cMet VHH-His
EC50 (human cMet on cells [6]): 4.16 nM
Maximum MFI value (human cMet on cells [6]): 49600 MFI

B10: pn7A12.N32X.m4 (VHH, not shown: small tags and cut ends)
VHH: EVQLVESGGGLVQAGGSLRLSCVASGNIFSSFHMGWFRQAPGKQREFIAYITTREITNYADSVKGRFTISRDNTKNTVYLQMNVLKPEDTAVYYCIADQSREIRRSWGQGTQVTVSS
notes: PTM-removal anti-cMet VHH-His
EC50 (human cMet on cells [6]): 4.96 nM
Maximum MFI value (human cMet on cells [6]): 38000 MFI
